From patent publication US10941182 (Amgen, dated 2021)
Starred links: 1 amine or outer side, 2 acyl side, 3 side chain; linkers in the order of their positions; H or OH if unused. Non-standard residues stand in square brackets, D forms with d. Primed or numbered codes have the meaning given here. *: point of attachment. dBip = N[C@H](Cc1ccc(-c2ccccc2)cc1)C(=O)O; Oic = O=C(O)[C@@H]1C[C@@H]2CCCC[C@@H]2N1; Phe(4-Cl) = N[C@@H](Cc1ccc(Cl)cc1)C(=O)O; Phe(4-I) = N[C@@H](Cc1ccc(I)cc1)C(=O)O; γGlu = O=C(O)[C@H](CCC(=O)[*:2])N[*:1]; NMeR = CN[C@@H](CCCNC(=N)N)C(=O)O; Tridecanoyl = CCCCCCCCCCCCC(=O)*; hArg = N=C(N)NCCCC[C@H](N)C(=O)O; Cha = N[C@@H](CC1CCCCC1)C(=O)O; NMeL = CN[C@@H](CC(C)C)C(=O)O; Nle = CCCC[C@H](N)C(=O)O; Pip′ = not defined here; AEEA = NCCOCCOCC(=O)O

T1: human APJ receptor (human, UniProt P35414 1-380)
T1 sequence (looked up): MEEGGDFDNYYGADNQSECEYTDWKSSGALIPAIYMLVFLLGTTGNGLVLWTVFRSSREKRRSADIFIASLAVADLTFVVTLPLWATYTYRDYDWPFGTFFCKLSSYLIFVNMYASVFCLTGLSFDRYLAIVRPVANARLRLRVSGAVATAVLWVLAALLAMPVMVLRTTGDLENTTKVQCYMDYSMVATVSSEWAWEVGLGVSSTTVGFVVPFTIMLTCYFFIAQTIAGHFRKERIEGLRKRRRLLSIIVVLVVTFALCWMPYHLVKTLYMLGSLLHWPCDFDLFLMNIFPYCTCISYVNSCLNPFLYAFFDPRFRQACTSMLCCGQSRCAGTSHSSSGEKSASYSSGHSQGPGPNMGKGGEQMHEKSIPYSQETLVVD

T2: rat APJ receptor (rat, UniProt Q9JHG3 1-377)
T2 sequence (looked up): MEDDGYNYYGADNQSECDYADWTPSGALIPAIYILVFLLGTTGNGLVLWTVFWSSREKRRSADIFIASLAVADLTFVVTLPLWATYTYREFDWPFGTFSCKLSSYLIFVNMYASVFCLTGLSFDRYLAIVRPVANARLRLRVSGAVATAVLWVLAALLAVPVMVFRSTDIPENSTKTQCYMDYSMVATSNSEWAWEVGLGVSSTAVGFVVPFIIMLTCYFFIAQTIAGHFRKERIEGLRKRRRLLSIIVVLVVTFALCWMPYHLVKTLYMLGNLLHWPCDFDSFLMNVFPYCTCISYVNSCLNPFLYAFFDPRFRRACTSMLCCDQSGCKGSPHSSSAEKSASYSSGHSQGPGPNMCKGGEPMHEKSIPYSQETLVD

B1: Apelin polypeptide SEQ ID NO: 479 (peptide)
peptide: Tridecanoyl-[γGlu][AEEA][AEEA][dR]Q[hArg]P[NMeR][Cha]SHKG[Oic][Nle]P[Phe(4-Cl)]-OH
SMILES: CCCCCCCCCCCCC(=O)N[C@@H](CCC(=O)NCCOCCOCC(=O)NCCOCCOCC(=O)N[C@H](CCCNC(=N)N)C(=O)N[C@@H](CCC(N)=O)C(=O)N[C@@H](CCCCNC(=N)N)C(=O)N1CCC[C@H]1C(=O)N(C)[C@@H](CCCNC(=N)N)C(=O)N[C@@H](CC1CCCCC1)C(=O)N[C@@H](CO)C(=O)N[C@@H](Cc1c[nH]cn1)C(=O)N[C@@H](CCCCN)C(=O)NCC(=O)N1[C@H](C(=O)N[C@@H](CCCC)C(=O)N2CCC[C@H]2C(=O)N[C@@H](Cc2ccc(Cl)cc2)C(=O)O)C[C@@H]2CCCC[C@@H]21)C(=O)O
B2: Apelin polypeptide SEQ ID NO: 345 (peptide)
peptide: Tridecanoyl-[γGlu][AEEA][AEEA]RQRP[Nle][Cha]AAKG[Oic][Nle]P[Phe(4-Cl)]-OH
SMILES: CCCCCCCCCCCCC(=O)N[C@@H](CCC(=O)NCCOCCOCC(=O)NCCOCCOCC(=O)N[C@@H](CCCNC(=N)N)C(=O)N[C@@H](CCC(N)=O)C(=O)N[C@@H](CCCNC(=N)N)C(=O)N1CCC[C@H]1C(=O)N[C@@H](CCCC)C(=O)N[C@@H](CC1CCCCC1)C(=O)N[C@@H](C)C(=O)N[C@@H](C)C(=O)N[C@@H](CCCCN)C(=O)NCC(=O)N1[C@H](C(=O)N[C@@H](CCCC)C(=O)N2CCC[C@H]2C(=O)N[C@@H](Cc2ccc(Cl)cc2)C(=O)O)C[C@@H]2CCCC[C@@H]21)C(=O)O
B3: Apelin polypeptide SEQ ID NO: 480 (peptide)
peptide: Tridecanoyl-[γGlu][AEEA][AEEA][dR]Q[hArg]P[hArg][Cha]SHKG[Oic][Nle]P[Phe(4-Cl)]-OH
SMILES: CCCCCCCCCCCCC(=O)N[C@@H](CCC(=O)NCCOCCOCC(=O)NCCOCCOCC(=O)N[C@H](CCCNC(=N)N)C(=O)N[C@@H](CCC(N)=O)C(=O)N[C@@H](CCCCNC(=N)N)C(=O)N1CCC[C@H]1C(=O)N[C@@H](CCCCNC(=N)N)C(=O)N[C@@H](CC1CCCCC1)C(=O)N[C@@H](CO)C(=O)N[C@@H](Cc1c[nH]cn1)C(=O)N[C@@H](CCCCN)C(=O)NCC(=O)N1[C@H](C(=O)N[C@@H](CCCC)C(=O)N2CCC[C@H]2C(=O)N[C@@H](Cc2ccc(Cl)cc2)C(=O)O)C[C@@H]2CCCC[C@@H]21)C(=O)O
B4: Apelin polypeptide SEQ ID NO: 344 (peptide)
peptide: Tridecanoyl-[γGlu][AEEA][AEEA]RQRP[Nle][Cha]AHKG[Oic][Nle]P[Phe(4-Cl)]-OH
SMILES: CCCCCCCCCCCCC(=O)N[C@@H](CCC(=O)NCCOCCOCC(=O)NCCOCCOCC(=O)N[C@@H](CCCNC(=N)N)C(=O)N[C@@H](CCC(N)=O)C(=O)N[C@@H](CCCNC(=N)N)C(=O)N1CCC[C@H]1C(=O)N[C@@H](CCCC)C(=O)N[C@@H](CC1CCCCC1)C(=O)N[C@@H](C)C(=O)N[C@@H](Cc1c[nH]cn1)C(=O)N[C@@H](CCCCN)C(=O)NCC(=O)N1[C@H](C(=O)N[C@@H](CCCC)C(=O)N2CCC[C@H]2C(=O)N[C@@H](Cc2ccc(Cl)cc2)C(=O)O)C[C@@H]2CCCC[C@@H]21)C(=O)O
B5: Apelin polypeptide SEQ ID NO: 339 (peptide)
peptide: Tridecanoyl-[γGlu][AEEA][AEEA]RQ[Nle]P[hArg][Cha]SHKG[Oic][Nle]P[Phe(4-Cl)]-OH
SMILES: CCCCCCCCCCCCC(=O)N[C@@H](CCC(=O)NCCOCCOCC(=O)NCCOCCOCC(=O)N[C@@H](CCCNC(=N)N)C(=O)N[C@@H](CCC(N)=O)C(=O)N[C@@H](CCCC)C(=O)N1CCC[C@H]1C(=O)N[C@@H](CCCCNC(=N)N)C(=O)N[C@@H](CC1CCCCC1)C(=O)N[C@@H](CO)C(=O)N[C@@H](Cc1c[nH]cn1)C(=O)N[C@@H](CCCCN)C(=O)NCC(=O)N1[C@H](C(=O)N[C@@H](CCCC)C(=O)N2CCC[C@H]2C(=O)N[C@@H](Cc2ccc(Cl)cc2)C(=O)O)C[C@@H]2CCCC[C@@H]21)C(=O)O
B6: Apelin polypeptide SEQ ID NO: 351 (peptide)
peptide: Tridecanoyl-[γGlu][AEEA][AEEA]RQRP[hArg][Cha]AA[Nle]G[Oic][Nle]P[Phe(4-Cl)]-OH
SMILES: CCCCCCCCCCCCC(=O)N[C@@H](CCC(=O)NCCOCCOCC(=O)NCCOCCOCC(=O)N[C@@H](CCCNC(=N)N)C(=O)N[C@@H](CCC(N)=O)C(=O)N[C@@H](CCCNC(=N)N)C(=O)N1CCC[C@H]1C(=O)N[C@@H](CCCCNC(=N)N)C(=O)N[C@@H](CC1CCCCC1)C(=O)N[C@@H](C)C(=O)N[C@@H](C)C(=O)N[C@@H](CCCC)C(=O)NCC(=O)N1[C@H](C(=O)N[C@@H](CCCC)C(=O)N2CCC[C@H]2C(=O)N[C@@H](Cc2ccc(Cl)cc2)C(=O)O)C[C@@H]2CCCC[C@@H]21)C(=O)O
B7: Apelin polypeptide SEQ ID NO: 343 (peptide)
peptide: Tridecanoyl-[γGlu][AEEA][AEEA]RQ[Nle]P[hArg][Cha]SAKG[Oic][Nle]P[Phe(4-Cl)]-OH
SMILES: CCCCCCCCCCCCC(=O)N[C@@H](CCC(=O)NCCOCCOCC(=O)NCCOCCOCC(=O)N[C@@H](CCCNC(=N)N)C(=O)N[C@@H](CCC(N)=O)C(=O)N[C@@H](CCCC)C(=O)N1CCC[C@H]1C(=O)N[C@@H](CCCCNC(=N)N)C(=O)N[C@@H](CC1CCCCC1)C(=O)N[C@@H](CO)C(=O)N[C@@H](C)C(=O)N[C@@H](CCCCN)C(=O)NCC(=O)N1[C@H](C(=O)N[C@@H](CCCC)C(=O)N2CCC[C@H]2C(=O)N[C@@H](Cc2ccc(Cl)cc2)C(=O)O)C[C@@H]2CCCC[C@@H]21)C(=O)O
B8: Apelin polypeptide SEQ ID NO: 348 (peptide)
peptide: Tridecanoyl-[γGlu][AEEA][AEEA]RQ[Nle]P[hArg][Cha]AAKG[Oic][Nle]P[Phe(4-Cl)]-OH
SMILES: CCCCCCCCCCCCC(=O)N[C@@H](CCC(=O)NCCOCCOCC(=O)NCCOCCOCC(=O)N[C@@H](CCCNC(=N)N)C(=O)N[C@@H](CCC(N)=O)C(=O)N[C@@H](CCCC)C(=O)N1CCC[C@H]1C(=O)N[C@@H](CCCCNC(=N)N)C(=O)N[C@@H](CC1CCCCC1)C(=O)N[C@@H](C)C(=O)N[C@@H](C)C(=O)N[C@@H](CCCCN)C(=O)NCC(=O)N1[C@H](C(=O)N[C@@H](CCCC)C(=O)N2CCC[C@H]2C(=O)N[C@@H](Cc2ccc(Cl)cc2)C(=O)O)C[C@@H]2CCCC[C@@H]21)C(=O)O
B9: Apelin polypeptide SEQ ID NO: 340 (peptide)
peptide: Tridecanoyl-[γGlu][AEEA][AEEA]RQRP[hArg][Cha]SA[Nle]G[Oic][Nle]P[Phe(4-Cl)]-OH
SMILES: CCCCCCCCCCCCC(=O)N[C@@H](CCC(=O)NCCOCCOCC(=O)NCCOCCOCC(=O)N[C@@H](CCCNC(=N)N)C(=O)N[C@@H](CCC(N)=O)C(=O)N[C@@H](CCCNC(=N)N)C(=O)N1CCC[C@H]1C(=O)N[C@@H](CCCCNC(=N)N)C(=O)N[C@@H](CC1CCCCC1)C(=O)N[C@@H](CO)C(=O)N[C@@H](C)C(=O)N[C@@H](CCCC)C(=O)NCC(=O)N1[C@H](C(=O)N[C@@H](CCCC)C(=O)N2CCC[C@H]2C(=O)N[C@@H](Cc2ccc(Cl)cc2)C(=O)O)C[C@@H]2CCCC[C@@H]21)C(=O)O
B10: Apelin polypeptide SEQ ID NO: 336 (peptide)
peptide: Tridecanoyl-[γGlu][AEEA][AEEA]RQRP[hArg][Cha]SH[Nle]G[Oic][Nle]P[Phe(4-Cl)]-OH
SMILES: CCCCCCCCCCCCC(=O)N[C@@H](CCC(=O)NCCOCCOCC(=O)NCCOCCOCC(=O)N[C@@H](CCCNC(=N)N)C(=O)N[C@@H](CCC(N)=O)C(=O)N[C@@H](CCCNC(=N)N)C(=O)N1CCC[C@H]1C(=O)N[C@@H](CCCCNC(=N)N)C(=O)N[C@@H](CC1CCCCC1)C(=O)N[C@@H](CO)C(=O)N[C@@H](Cc1c[nH]cn1)C(=O)N[C@@H](CCCC)C(=O)NCC(=O)N1[C@H](C(=O)N[C@@H](CCCC)C(=O)N2CCC[C@H]2C(=O)N[C@@H](Cc2ccc(Cl)cc2)C(=O)O)C[C@@H]2CCCC[C@@H]21)C(=O)O

Assays:
human APJ receptor = biological target: T1, human APJ receptor; experiment: cell-based or functional assay
rat APJ receptor = biological target: T2, rat APJ receptor; experiment: cell-based or functional assay

| Binder | EC50 Human APJ Receptor (GTPγS assay) (human APJ receptor) | EC50 Rat APJ Receptor (GTPγS assay) (rat APJ receptor) |
| --- | --- | --- |
| B1 | 0.409 nM | 0.805 nM |
| B2 | 4.51 nM | 5.79 nM |
| B3 | 0.0998 nM | 0.271 nM |
| B4 | 3.46 nM | 5.58 nM |
| Tridecanoyl-[γGlu][AEEA][AEEA][dR]QRP[hArg][NMeL]SHKG[Pip′][Phe(4-I)]P[dBip]-OH [Apelin polypeptide SEQ ID NO: 565] | 1.02 nM | 2.82 nM |
| B5 | 2.55 nM | 4.53 nM |
| B6 | 1.59 nM | 1.8 nM |
| B7 | 1.4 nM | 1.24 nM |
| Tridecanoyl-[γGlu][AEEA][AEEA]RQ[Nle]P[hArg][Cha]SAKG[Pip′][Nle]P[Phe(4-Cl)]-OH [Apelin polypeptide SEQ ID NO: 564] | 0.331 nM | 1.49 nM |
| B8 | 4.92 nM | 7.46 nM |
| B9 | 0.345 nM | 0.676 nM |
| B10 | 0.714 nM | 0.986 nM |
